Data as given in the Immune Epitope Database (IEDB).

Tests used:
Assay in all cases: IEDB peptide-MHC binding, purified MHC/competitive/radioactivity; ≥ and ≤ were set here for values at or beyond the usual limits of such assays
Conditions in all cases: source organism: Bordetella pertussis
HLA-B*07:02 = target: HLA-B*07:02
HLA-B*35:01 = target: HLA-B*35:01
HLA-B*53:01 = target: HLA-B*53:01
HLA-B*44:03 = target: HLA-B*44:03
HLA-B*57:01 = target: HLA-B*57:01
HLA-A*02:01 = target: HLA-A*02:01

**Q.** What does the source list for LAARGDGAL?
**A.** IC50 (HLA-B*07:02): 6.34 µM; IC50 (HLA-B*35:01): 69.9 µM

**Q.** For ASSPDAHVP, which IC50 (HLA-B*53:01) is on record?
**A.** 52.3 µM

**Q.** Which IC50 (HLA-B*53:01) does the source give for YAEHGEVSI here?
**A.** 11.4 µM

**Q.** With AEGGATLGA as the sequence, how does the IC50 (HLA-B*44:03) read?
**A.** 12 µM

**Q.** With QQLKQADRD as the sequence, how does the IC50 (HLA-B*07:02) read?
**A.** 69.6 µM

**Q.** How did the IC50 (HLA-B*57:01) turn out when VTSVAMKPY was run?
**A.** 9.09 µM

**Q.** YAIDGTAAG was tested. Which IC50 (HLA-B*35:01) did it give?
**A.** 2.33 µM

**Q.** How did the IC50 (HLA-B*44:03) turn out when MEVMLRAVF was run?
**A.** 0.0115 µM

**Q.** How did the IC50 (HLA-A*02:01) turn out when STYELLDYL was run?
**A.** 8.01 µM

**Q.** Which results are given for TVVQRNKHW?
**A.** IC50 (HLA-B*53:01): 69.9 µM; IC50 (HLA-B*57:01): ≥ 70.4 µM

**Q.** Which IC50 (HLA-B*53:01) does the source give for VSGGSLSAP here?
**A.** 54.5 µM

**Q.** With FIYRETFCI as the sequence, how does the IC50 (HLA-B*53:01) read?
**A.** 6.63 µM

**Q.** How did the IC50 (HLA-A*02:01) turn out when HLSPALADV was run?
**A.** 0.444 µM

**Q.** How did the IC50 (HLA-B*44:03) turn out when LSAALGADW was run?
**A.** 1.17 µM

**Q.** And the IC50 (HLA-B*53:01)?
**A.** 1.69 µM

**Q.** Which IC50 (HLA-B*57:01) does the source give for EKRLDIDDA here?
**A.** ≥ 70.4 µM

**Q.** For NNETMSGRQ, which IC50 (HLA-B*57:01) is on record?
**A.** ≥ 70.4 µM

**Q.** VGAGGYEAG was tested. Which IC50 (HLA-B*53:01) did it give?
**A.** 69.9 µM
